According to patent US8604172B2, “Humanized antibody compositions and methods for binding lysophosphatidic acid” (Lpath, Inc., priority 2009, dated 2013):

Experiments:
neovascularization = assay: Classical angiogenesis models; format: in vivo; details: two classical angiogenesis models
[1] = Competition ELISA specificity, competitor Cer; format: binding; details: maximum inhibition, n = 3
Method: The specificity of the anti-LPA mAbs was assessed for their binding to LPA related biolipids such as distearoyl-phosphatidic acid, lysophosphatidylcholine, S1P, ceramide and ceramide-1-phosphate.

[2] = Competition ELISA (18:1 LPA coat), competitor 18:2 LPA; format: binding; details: maximum inhibition
Method: (§1) Many isoforms of LPA have been identified to be biologically active and it is preferable that the mAb recognize all of them to some extent to be of therapeutic relevance. The specificity of the anti-LPA mAbs was evaluated utilizing a competition assay in which the competitor lipid was added to the antibody-immobilized lipid mixture.
(§2) Competition ELISA assays were performed with the anti-LPA mAbs to assess their specificity. 18:1 LPA was captured on ELISA plates. Each competitor lipid (up to 10 uM) was serially diluted in BSA (1 mg/ml)-PBS and then incubated with the mAbs (3 nM). Mixtures were then transferred to LPA coated wells and the amount of bound antibody was measured with a secondary antibody. Data are normalized to maximum signal (A450) and are expressed as percent inhibition. Assays were performed in triplicate. IC50: Half maximum inhibition concentration; MI: Maximum inhibition (% of binding in the absence of inhibitor); - - -: not estimated because of weak inhibition. A high inhibition result indicates recognition of the competitor lipid by the antibody.

[3] = Safety, 7 day intravenous injection; format: in vivo, C57BL/6N mice; details: for triglycerides / liver weights: mean±SD; for triglycerides: in mg/dL (unit assumed); for liver weights: in g (unit assumed)
Description: Objective. This study assessed the safety of Lpathomab following intravenous injection of the antibody. C57BL/6N mice received Lpathomab (LT3000) for 7 consecutive days followed by a 7 day recovery period for selected animals of each treatment (recovery groups). Blood samples were collected and processed for multiple study parameters including classical hematology, coagulation time and clinical chemistry. Selected organs were weighed and compared with vehicle only controls.
Study design. Once a day, single iv bolus injections of Lpathomab or vehicle control were given at the following doses: 0, 30, 60, 120, and 240 mg/kg. […] For each animal, necropsy consisted of an external examination, including identification of all clinically recorded lesions, as well as a detailed internal examination.

[4] = tested on: human colon cancer cell line (COLO-205); assay: Xenograft CAM assay; format: in vivo
[5] = Direct binding ELISA of anti-LPA mAbs to 12:0 LPA
Method: The binding of 6 anti-LPA mAbs (B3, B7, B58, A63, B3A6, D22) to 12:0 and 18:1 LPA (0.1 uM) was measured by ELISA. EC50 values were calculated from titration curves using 6 increasing concentrations of purified mAbs (0 to 0.4 ug/ml). EC50 represents the effective antibody concentration with 50% of the maximum binding. Max denotes the maximal binding (expressed as OD450).

[6] = tested on: IL-8 release in SKOV3 cells; assay: LPA-induced IL-8 release in SKOV3 cells; format: cell-based, human
Method: Anti-LPA antibodies inhibit the LPA-dependant release of human CXCL8/IL-8 in conditioned media of SKOV3 ovarian cells. SKOV3 cells (Lot No 4255558, passage 14) were harvested with 2 ml of 1× Trypsin EDTA (Mediatech Inc, Cat. No 25-053-CV) and resuspended in 8 ml of complete medium (10% FBS, Mediatech Inc. Cat. no 35-011-CV). The cells were centrifuged for 5 min ([…]) and re-suspended in 5 ml of complete medium. Cells were counted in duplicate with 0.4% Trypan blue (10 ul cells plus 90 ul Trypan blue, Invitrogen, Cat. No 15250-061) using a hemocytometer. In a 96-well plate, 1×10^5 cells per well were seeded (final volume 100 ul/well). The cells were allowed to attach and form a confluent monolayer by incubating overnight at 37° C. On the following day, cells were gently washed two times with minimum media (1 mg/ml BSA in McCoy's medium with L-glutamine, Mediatech, Cat. No 10-050-CV). The media was adjusted to 1% penicillin/streptomycin (Mediatech, Cat. No 30-002 CI) and 2.2 g/L sodium-bicarbonate (Mediatech, Cat. No 25-035-CI). Next, the cells were serum-starved at 37° C. for exactly 24 h, followed by cytokine stimulation with 1 uM C18:1 LPA (Avanti, Cat. No 857130) dissolved in 1 mg/ml BSA/PBS (Calbiochem, Cat. No 126575) which was pre-incubated in presence or absence of humanized LPA antibody LT3015 (150, 300 or 600 ug/mL) for one hour. Treatments were then added to the cells. After 22 h of cytokine stimulation, the cells were centrifuged for 5 min (13,500 rpm) at 4° C. and the supernatants (cell-conditioned media) were collected. The CXCL8/IL-8 levels in each supernatant were measured using the Quantikine human CXCL8/IL-8 ELISA kit according to vendor instructions (R&D Systems, Minneapolis Minn., Cat. No D8000C). The IL-6 levels were measured by ELISA using the Quantikine human IL-6 immunoassay kit (R&D systems, Cat. No. D6050). Data were analyzed by one-way ANOVA followed by Bonferroni's post test and expressed as human IL-8 or human IL-6 fold increase.

[7] = Competition ELISA (18:1 LPA coat), competitor 18:1 LPA; format: binding; details: maximum inhibition
Method: as §1, §2

Thermostability (Tm) = format: physicochemical
Method: The thermostability of the humanized antibodies were studied by measuring their LPA-binding affinity (EC50) after heating using the direct binding ELISA. Antibodies dissolved in PBS (Cellgo, Cat. No 021-040) were diluted to 25 ug/ml and incubated at 60° C., 65° C., 70° C., 75° C. and 80° C. for 10 min. Prior to increasing the temperature, 10 ul of each sample was removed and diluted with 90 ul of PBS and stored on ice. The samples were then vortexed briefly and the insoluble material was removed by centrifugation for 1 min at 13,000 rpm. The binding activity of the supernatant was determined using the direct LPA-binding ELISA and compared to a control, which consisted of the same sample without heat treatment.

[8] = Competition ELISA (18:1 LPA coat), competitor 20:4 LPA; format: binding; details: maximum inhibition
Method: as §1, §2

[9] = 30-240 mg/kg iv daily x 7 vs control

B1: LT3000: Murine anti-LPA monoclonal antibody clone B7, IgG1k, renamed Lpathomab, also known as LT3000; hybridoma 504B7.1, ATCC PTA-8420 (antibody, V domains shown)
VH: QVQLQQSGAELVRPGTSVKVSCKASGYGFINYLIEWIKQRPGQGLEWIGLINPGSDYTNYNENFKGKATLTADKSSSTAYMHLSSLTSEDSAVYFCARRFGYYGSGNYFDYWGQGTTLTVSS
VL: DVVMTQTPLSLPVSLGDQASISCTSGQSLVHINGNTYLHWYLQKPGQSPKLLIYKVSNLFSGVPDRFSGSGSGTDFTLKISRVEAEDLGVYFCSQSTHFPFTFGTGTKLEIK
neovascularization (neovascularization): inhibited | MI (%), Cer [1]: 1% | MI, 18:2 LPA [2]: 100% | weights of brains, hearts, lungs, pituitary glands, ovaries, spleens, testes, thymus glands, thyroid or uterus ([3]; 30-240 mg/kg iv daily x 7): No changes were observed | glucose, cholesterol, ALT or other CBC parameters [3, 9]: no statistically significant reductions | hematology parameters [3, 9]: no significant differences | triglycerides ([3]; female mice, 120 mg/kg iv daily x 7, vehicle 89±17): 36±8 | triglycerides ([3]; female mice, 240 mg/kg iv daily x 7, vehicle 89±17): 46±18 | liver weights ([3]; female mice, 240 mg/kg, vehicle 1.2±0.27): 0.89±0.26 | liver weights ([3]; male mice, 60 mg/kg, vehicle 1.28±0.06): 1.03±0.07 | liver weights ([3]; male mice, 120 mg/kg, vehicle 1.28±0.06): 1.08±0.11 | triglycerides ([3]; male mice, 240 mg/kg iv daily x 7, vehicle 133±24): 50±8 | liver weights ([3]; male mice, 240 mg/kg, vehicle 1.28±0.06): 1.11±0.11 | tumor size [4]: significantly reduced | EC50 ([5]; 12:0 LPA 0.1 uM, mAb 0 to 0.4 ug/ml): 0.413 nM | Max (OD450), 12:0 LPA ([5]; maximal binding): 1.395 OD450 | IL-8 Release, % Inhibition (over LPA taken as 100) ([6]; Lpathomab 300 μg/mL, 1 μM 18:1 LPA, n = 3): 20% | IL-8 release from ovarian cancer cells ([6]; in vitro): reduced IL-8 release from ovarian cancer cells in a concentration-dependent manner | MI, 18:1 LPA [7]: 100% | Tm (Thermostability (Tm); 10 min at 60-80° C., LPA binding by direct ELISA): 67 °C | Apparent Tm (Thermostability (Tm); pH 7.4): 67 °C at pH 7.4 | MI, 20:4 LPA [8]: 67%
